PMC2063960 (The Journal of Cell Biology, 2007)

Biological target: Myc-tagged dimeric ECDT (Myc-HR-ECDT) (UniProt P12830 731-882)
Test: co-IP

Myc-tagged dimeric ECDT (Myc-HR-ECDT), sequence (P12830 731-882): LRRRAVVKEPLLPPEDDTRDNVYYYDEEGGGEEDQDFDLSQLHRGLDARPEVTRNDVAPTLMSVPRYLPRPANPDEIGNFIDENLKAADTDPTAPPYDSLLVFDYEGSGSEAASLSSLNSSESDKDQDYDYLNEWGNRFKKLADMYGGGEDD

B1: p120-catenin, endogenous in HEK293 cells (natural protein, human (endogenous in HEK293), UniProt O60716 1-968, looked up)
chain: MDDSEVESTASILASVKEQEAQFEKLTRALEEERRHVSAQLERVRVSPQDANPLMANGTLTRRHQNGRFVGDADLERQKFSDLKLNGPQDHSHLLYSTIPRMQEPGQIVETYTEEDPEGAMSVVSVETSDDGTTRRTETTVKKVVKTVTTRTVQPVAMGPDGLPVDASSVSNNYIQTLGRDFRKNGNGGPGPYVGQAGTATLPRNFHYPPDGYSRHYEDGYPGGSDNYGSLSRVTRIEERYRPSMEGYRAPSRQDVYGPQPQVRVGGSSVDLHRFHPEPYGLEDDQRSMGYDDLDYGMMSDYGTARRTGTPSDPRRRLRSYEDMIGEEVPSDQYYWAPLAQHERGSLASLDSLRKGGPPPPNWRQPELPEVIAMLGFRLDAVKSNAAAYLQHLCYRNDKVKTDVRKLKGIPVLVGLLDHPKKEVHLGACGALKNISFGRDQDNKIAIKNCDGVPALVRLLRKARDMDLTEVITGTLWNLSSHDSIKMEIVDHALHALTDEVIIPHSGWEREPNEDCKPRHIEWESVLTNTAGCLRNVSSERSEARRKLRECDGLVDALIFIVQAEIGQKDSDSKLVENCVCLLRNLSYQVHREIPQAERYQEAAPNVANNTGPHAASCFGAKKGKDEWFSRGKKPIEDPANDTVDFPKRTSPARGYELLFQPEVVRIYISLLKESKTPAILEASAGAIQNLCAGRWTYGRYIRSALRQEKALSAIADLLTNEHERVVKAASGALRNLAVDARNKELIGKHAIPNLVKNLPGGQQNSSWNFSEDTVISILNTINEVIAENLEAAKKLRETQGIEKLVLINKSGNRSEKEVRAAALVLQTIWGYKELRKPLEKEGWKKSDFQVNLNNASRSQSSHSYDDSTLPLIDRNQKSDKKPDREEIQMSNMGSNTKSLDNNYSTPNERGDHNRTLDRSGDLGDMEPLKGTTPLMQDEGQESLEEELDVLVLDDEGGQVSYPSMQKI
**Q.** How did the “fold affinity against the monomer (Myc-ECDT)” value turn out when B1 was run?
**A.** ~10 fold
